Source: article PMC2225448
Square brackets hold non-standard residues; d marks the D form. Ends that are not written are not given here. pY = N[C@@H](Cc1ccc(OP(=O)(O)O)cc1)C(=O)O

Molecular target: SOCS4-ElonginC-ElonginB ternary complex (human), Q8WXH5
Assay: ITC; 0.3-0.4 mM peptide injected into 15 μM protein; 50 mM HEPES (pH 7.5), 150 mM NaCl, 1 mM DTT, 20°C; blank titrations subtracted; single binding site model
Settings: remark: other sources report otherwise

Chain of SOCS4-ElonginC-ElonginB ternary complex (human), Q8WXH5 (Q8WXH5 274-437, chain 1 of 3): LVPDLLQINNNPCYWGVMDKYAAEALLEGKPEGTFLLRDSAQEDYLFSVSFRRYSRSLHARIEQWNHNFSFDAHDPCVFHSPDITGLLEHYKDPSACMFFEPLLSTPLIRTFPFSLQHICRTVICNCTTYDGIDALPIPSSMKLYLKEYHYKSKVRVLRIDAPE
Chain of SOCS4-ElonginC-ElonginB ternary complex (human), Q8WXH5 (Q15369 17-112, chain 2 of 3, further chain): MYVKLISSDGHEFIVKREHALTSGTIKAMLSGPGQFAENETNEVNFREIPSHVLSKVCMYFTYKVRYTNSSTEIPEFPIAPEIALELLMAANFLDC
Chain of SOCS4-ElonginC-ElonginB ternary complex (human), Q8WXH5 (Q15370 whole entry, chain 3 of 3, further chain): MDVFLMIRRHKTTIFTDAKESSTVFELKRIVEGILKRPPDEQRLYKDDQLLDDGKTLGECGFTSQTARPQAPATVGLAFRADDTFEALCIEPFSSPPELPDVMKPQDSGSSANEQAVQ

Ka: 130000 M⁻¹
Kd: 7.7 µM
dH: -14.5 kcal/mol
stoichiometry N: 0.71
Binder: ASFE[pY]TILDPS [EpoR pY402 peptide ASFE(pY)TILDPS]
